Results as given in patent US8809529B2, “Imidazo[1,2-α]pyrazine derivatives” (Promega Corporation, priority 2010, dated 2014).
Read-outs that look alike come from different tables or passages of the source.

Key:
[1] = Km of L27V reversion variants for native coelenterazine; assay type: biochemical
Description: Relative activities <1 indicate the reversion is detrimental compared to the residue at that site in the L27V variant. Relative activities >1 indicate the reversion is favorable for activity compared to the residue at that site in the L27V variant. Some additional data on these mutants indicated the following: 166K, 54F, 54A and L27V were tested for thermal stability. The T1/2 60° C. for 166K, 54F, and 54A were 87, 74, and 33%, respectively, indicating these substitutions cause a reduction in thermal stability. […] This indicates higher substrate affinity for L27V, particularly for the position 54 substitutions.

HEK293 cells = test: Stability of 9B8 and V2 in HEK293 cells; assay type: cell-based, human; conditions: HEK293 cells lysed in assay reagent, 20 μM PBI-3939
Description: The variants 9B8 and V2 (9B8+K33N+T39T+K43R+Y68D) were also screened in HEK293 cells to determine their stability. The variants were cloned into pF4Ag and transfected into HEK293 cells (15,000 cells/well) as previously described. After transfection, the cells were lysed in assay reagent (as previously described; no PBI-3939), and luminescence measured using the assay reagent with 20 μM PBI-3939. […] This is consistent with the half-life seen for these variants in E. coli (Table 26).

[2] = assay type: physicochemical, E. coli; conditions: for ½ life: 50° C.
Description: Lysates of E. coli containing 15C1, 9B8, 9F6, 8A3 or IV and E. coli expressing hRL (SEQ ID NO: 30 and 31) were prepared from induced cultures as described previously. Lysate samples were diluted 1:1000 with a buffer containing 10 mM HEPES pH 7.5 with 0.1% gelatin. Diluted lysate (100 μL) samples, in replicate 96-well plates, were incubated at 50° C. At different time points, plates were placed at −70° C. (minus seventy degrees Celsius). Prior to measuring the luminescence as described previously, each plate was thawed at room temperature, i.e., 22° C., for 10 min. Samples (10 μL of each thawed sample) were assayed using native coelenterazine as a substrate. Luminescence was measured immediately after addition of assay buffer for each time point plate. The half-life of the protein, which indicated protein stability, was calculated from the luminescence data for each time point using methods known in the art.

CRE [3] = test: CRE transcriptional reporter, bulk transfection, HEK293 cells; assay type: cell-based, human
Description: (§1) The transcriptional reporter containing […] and 9B8 opt-P was used in the bulk transfection of HeLa cells
(§2) HEK293, NIH3T3, or HeLa cells were plated to a single well of a 6-well tissue culture plate the day before transfection at a density of 4.5×10^5 cells/well in 3 mL complete medium (DMEM+10% FBS+1×NEAA+1× sodium pyruvate) for HEK293 cells, 3×10^5 cellsNvell in 3 mL complete medium (DMEM+10% fetal calf serum (FCS)+1×NEAA+1× sodium pyruvate) for NIH3T3 cells, or 9.9×10^5 cells/well in 3 mL complete medium (DMEM+10% FBS+1×NEAA) for HeLa cells. Cells were grown overnight at 37° C.
(§3) 3,300 ng of reporter plasmid DNA in 155 4 OPTI-MEM® was mixed with 9.9 μL FUGENE® HD transfection reagent, vortexed briefly, and incubated at room temperature for 10 min. The CRE transcriptional reporters were used to transfect HEK293 and NIH3T3 cells. The HRE transcriptional reporters were used to transfect HeLa cells. The reporter mixture was added to cells and mixed by gentle rocking followed by incubation at 37° C. for 6 hrs (HEK293 and NIH3T3) or 3 hrs (HeLa). Cells were then trypsinized and resuspended in medium (DMEM+10% FBS+1×NEAA+1× sodium pyruvate for HEK293 cells, DMEM+10% FCS+1×NEAA+1× sodium pyruvate for NIH3T3 cells, or DMEM+10% FBS+1×NEAA for HeLa cells), followed by plating to the individual wells of a 96-well plate (20,000 cells/100 μL for HEK293, 10,000 cells/100 4 for NIH3T3, or […] for HeLa) and incubated at 37° C. overnight.
(§4) FSK (CRE stimulator) or 17-AAG (HRE stimulator; 17-Allylamino-demethoxy geldanamycin) in OPTI-MEM® was added to the cells (10 nM or 10 μM final concentration for FSK; 1 nM or 1 μM final concentration for 17-AAG) and incubated at 37° C. for 4 hrs (FSK) or 6 hrs (17-AAG). Plates were removed from the incubator and allowed to equilibrate to room temperature for 25 min. Cells were lysed with 100 μL lytic reagent as described above for the forward transfection. Luminescence was measured on a GLOMAX® Luminometer.

[4] = system: cAMP response element (CRE); test: CRE transcriptional reporter, forward transfection, HEK293 cells; assay type: cell-based, human; parameters: Response: scale not given here; conditions: for baseline: 10 nM FSK; for baseline / RLU (10 μM FSK): 3 h
Description: HEK293 cells were plated at 15,000 cells/well in six 96-well tissue culture plates. Cells were grown in 100 μL of DMEM+10% FBS+1× non-essential amino acids (NEAA) and incubated overnight at 37° C. The cells were transiently transfected with either 10 ng or 100 ng plasmid DNA/well of pGL4.29 9B8 opt, pGL4.29 9B8 opt-P, or pGL4.29. Plasmid DNA was mixed with 850 μL of OPTI-MEM® (Invitrogen) and 32.4 μL of FUGENE® HD transfection reagent (Promega Corp.) and incubated at room temperature for 10 min. Eight μL of the transfection/reporter DNA mixture was added to the appropriate wells (2 constructs/plate). Cells were incubated for 4 hrs at 37° C. The medium was replaced with OPTI-MEM®+0.5% dialyzed FBS+1×NEAA+1× sodium pyruvate+1× Penn-Strep and incubated overnight at 37° C.
A lytic reagent containing 100 mM MES pH 6.1, 1 mM CDTA, 150 mM KCl, 35 mM thiourea, 2 mM DTT, 0.25% TERGITOL® NP-9 (v/v), 0.025% MAZU® DF 204, and 20 μM PBI-3939 was added to the cells containing pGL4.29 9B8 opt or pGL4.29 9B8 opt-P and allowed to incubated for 10 min at room temperature (100 μL lytic reagent added to 100 μL cells). ONE-GLO™ assay reagent (Promega Corp.) was added to cells containing pGL4.29 and used according to the manufacturer's protocol (100 μL reagent added to 100 μL cells). Luminescence was measured on a GLOMAX® Luminometer.

CRE [5] = test: CRE transcriptional reporter, bulk transfection, NIH3T3 cells; assay type: cell-based
Description: as §1, §2, §3, §4

B1: L27V: 9B8 opt+K33N variant with L27V, T39T, K43R, Y68D (protein)
chain: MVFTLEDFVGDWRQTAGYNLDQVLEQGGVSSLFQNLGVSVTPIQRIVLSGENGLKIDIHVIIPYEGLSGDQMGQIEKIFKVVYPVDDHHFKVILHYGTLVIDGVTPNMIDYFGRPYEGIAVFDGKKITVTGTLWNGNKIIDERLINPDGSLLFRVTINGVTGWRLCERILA
Km [1]: 16 µM

B2: 9B8: IV variant with Q18L, F68Y, L72Q, M75K; in Tables 12, 22, 23, 26, 27 “9B8” stands for 9B8 opt (protein)
chain: MVFTLEDFVGDWRQTAGYNLDQVLEQGGLSSLFQKLGVSVTPIQKIVLSGENGLKIDIHVIIPYEGLSGYQMGQIEKIFKVVYPVDDHHFKVILHYGTLVIDGVTPNMIDYFGRPYEGIAVFDGKKITVTGTLWNGNKIIDERLINPDGSLLFRVTINGVTGWRLCERILA
half-life (HEK293 cells): 5.2 h
½ life [2]: 5.8 h
½ life ([2]; native coelenterazine as substrate): 5.777 h
% remaining at t = 4 hrs ([2]; 4 h): 61%

B3: 9B8 opt: codon optimized version of the 9B8 variant (protein)
chain: MVFTLEDFVGDWRQTAGYNLDQVLEQGGLSSLFQKLGVSVTPIQKIVLSGENGLKIDIHVIIPYEGLSGYQMGQIEKIFKVVYPVDDHHFKVILHYGTLVIDGVTPNMIDYFGRPYEGIAVFDGKKITVTGTLWNGNKIIDERLINPDGSLLFRVTINGVTGWRLCERILA
baseline (CRE [3]; HEK293, 10 nM FSK, 4 h): 39,700,000
RLU (10 mM FSK) (CRE [3]; HEK293, 4 h): 654,000,000 RLU
Response (CRE [3]; HEK293, FSK): 16
Response ([4]; 10 ng DNA for transfection): 67
baseline ([4]; 10 ng DNA for transfection): 192810
RLU (10 μM FSK) ([4]; 10 ng DNA for transfection): 12,926,465 RLU
Response ([4]; 100 ng DNA for transfection): 34
baseline ([4]; 100 ng DNA for transfection): 3,078,418
RLU (10 μM FSK) ([4]; 100 ng DNA for transfection): 104,687,723 RLU
baseline (CRE [5]; NIH3T3, 10 nM FSK, 4 h): 9,187,000
RLU (10 mM FSK) (CRE [5]; NIH3T3, 4 h): 23,600,000 RLU
Response (CRE [5]; NIH3T3, FSK): 2.6
